Assay results: US20250206818A1 (AGENUS, published 2025)

What was measured:
[1] = molecular target: T1, human LAG-3 expressed on cells (human, UniProt P18627 23-525); test: flow cytometry, 10 ug/ml antibody on SEA-activated primary human CD4+ T cells (FIG. 6A)
T1 construct: whole, on cells; also called CD223
T1 sequence (looked up): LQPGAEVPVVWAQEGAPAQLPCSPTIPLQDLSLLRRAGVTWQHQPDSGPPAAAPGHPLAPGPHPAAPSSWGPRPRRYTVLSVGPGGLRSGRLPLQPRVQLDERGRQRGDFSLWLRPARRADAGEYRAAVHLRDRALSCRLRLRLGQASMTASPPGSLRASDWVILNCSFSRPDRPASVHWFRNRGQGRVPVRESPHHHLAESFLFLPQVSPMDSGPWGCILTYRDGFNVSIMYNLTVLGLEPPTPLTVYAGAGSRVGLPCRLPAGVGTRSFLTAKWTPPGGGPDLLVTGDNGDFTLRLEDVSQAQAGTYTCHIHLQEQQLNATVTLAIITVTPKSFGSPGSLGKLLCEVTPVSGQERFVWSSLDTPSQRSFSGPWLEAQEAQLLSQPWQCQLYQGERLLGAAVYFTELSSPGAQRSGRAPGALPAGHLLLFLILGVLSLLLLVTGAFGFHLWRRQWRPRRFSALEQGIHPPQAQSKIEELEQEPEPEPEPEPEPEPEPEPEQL

[2] = molecular target: T2, human LAG-3 (human, UniProt P18627 23-450, limits assumed); test: Fab phage display selection; periplasmic extracts screened by ELISA or flow cytometry
T2 construct: Selections used human LAG-3-Fc, human LAG-3-6His, a 30 aa LAG-3 peptide and/or cells with cynomolgus LAG-3; also called CD223
T2 sequence (looked up): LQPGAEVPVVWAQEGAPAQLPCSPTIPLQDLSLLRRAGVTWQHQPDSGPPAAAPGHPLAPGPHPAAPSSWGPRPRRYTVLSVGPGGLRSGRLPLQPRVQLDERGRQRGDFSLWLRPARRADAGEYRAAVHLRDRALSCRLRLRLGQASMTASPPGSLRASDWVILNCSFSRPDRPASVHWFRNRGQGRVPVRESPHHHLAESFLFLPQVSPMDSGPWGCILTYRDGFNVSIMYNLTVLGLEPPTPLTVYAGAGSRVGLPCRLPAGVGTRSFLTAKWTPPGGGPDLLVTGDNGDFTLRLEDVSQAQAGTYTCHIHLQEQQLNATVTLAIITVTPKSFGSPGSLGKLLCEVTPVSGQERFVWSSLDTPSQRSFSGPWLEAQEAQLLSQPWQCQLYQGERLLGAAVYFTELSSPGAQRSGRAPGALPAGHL

[3] = molecular target: T1, human LAG-3 expressed on cells; test: flow cytometry, Fab periplasmic extract on Jurkat cells expressing human LAG-3 (FIGS. 1A-1C)
Protocol: The anti-LAG-3 Fabs from periplasmic extracts were tested for binding to LAG-3-expressing cells using flow cytometry. Briefly, wild type and human LAG-3-expressing Jurkat cells were plated at 2×10⁵ cells/well in sample buffer (PBS (Gibco, Cat #10010-015)+0.5% FBS (Gibco, Cat #10270-106)) in 96-well U-bottom plates (Sarstedt). 22 μl of anti-LAG-3 Fab periplasmic extract and 83 μl of diluted anti-c-myc antibody (Gentaur, Clone #9E10, Cat #04-cmyc-9E10) were incubated for 30 minutes at room temperature. 100 μl of the periplasmic extract/anti-c-myc mixture was added to cells and then incubated for one hour on ice. Cells were washed three times and then incubated with a goat anti-mouse APC (BD Biosciences, Cat #550826) for 30 minutes on ice. Cells were washed three times and then analyzed with a FACS machine (BD Accuri6).

[4] = molecular target: T3, recombinant human LAG-3 (human, UniProt P18627 23-450, limits assumed); test: surface plasmon resonance (data not shown)
T3 sequence (looked up): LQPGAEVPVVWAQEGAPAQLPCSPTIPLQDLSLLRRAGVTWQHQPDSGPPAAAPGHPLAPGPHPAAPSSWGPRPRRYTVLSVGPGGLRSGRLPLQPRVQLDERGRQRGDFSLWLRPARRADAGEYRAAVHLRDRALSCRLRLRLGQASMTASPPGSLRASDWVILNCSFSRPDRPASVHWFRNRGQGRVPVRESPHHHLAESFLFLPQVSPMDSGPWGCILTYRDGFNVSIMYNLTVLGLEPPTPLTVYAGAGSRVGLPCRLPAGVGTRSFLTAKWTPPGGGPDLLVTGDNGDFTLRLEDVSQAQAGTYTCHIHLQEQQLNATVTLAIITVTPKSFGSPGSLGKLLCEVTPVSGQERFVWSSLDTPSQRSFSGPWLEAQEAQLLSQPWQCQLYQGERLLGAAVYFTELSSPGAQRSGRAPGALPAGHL

B1: full length chimeric anti-LAG-3 antibody P13B02 (antibody, V domains shown)
VH: QVQMKQSGAELVKPGASVKLSCTASGFNIKDTYIHWVKQRPEQGLEWIGEIDPANDNTKYDPKFQGKATITADTSSNTAYLQLSSLTSEDTAVYYCATYYYRYDVGGFDYWGQGTTLTVS
VL: EILLTQSPALMAASPGEKVTITCSVSSSISSSNLHWFQQKSGTSPKLWIYGTSNLASGVPVRFSGSGSGTSYSLTISSMEAEDAATYYCQQWSSYPFTFGSGTKLEIK
notes: Murine variable regions on human heavy (Ch1, Ch2, Ch3) and light (CL) constant regions; full-length IgG1 chimeric antibody; also called chimeric antibody P13B02 (IgG1)
- binding result [1]: binds

B2: P13B02 Fab (Fab, V domains shown)
VH: QVQMKQSGAELVKPGASVKLSCTASGFNIKDTYIHWVKQRPEQGLEWIGEIDPANDNTKYDPKFQGKATITADTSSNTAYLQLSSLTSEDTAVYYCATYYYRYDVGGFDYWGQGTTLTVS
VL: EILLTQSPALMAASPGEKVTITCSVSSSISSSNLHWFQQKSGTSPKLWIYGTSNLASGVPVRFSGSGSGTSYSLTISSMEAEDAATYYCQQWSSYPFTFGSGTKLEIK
notes: Murine Fab, periplasmic extract
- binding result [2]: binds
- binding result [3]: binds

B3: P13B03 Fab (Fab, V domains shown)
VH: EVQLQQSGAELVKPGASVKLSCTASGFNIKDTYIHWVKQRPEQGLEWIGEIDPANGNTKYDPKFQGKATITADTSSNTAYLQLSSLTSEDTAVYYCATYYYRYDVGGFDYWGQGTTLTVS
VL: ENVLTQSPALMAASPGEKVTITCSVSSSISSSNLHWFQQKSGTSPKLWIYGTSNLASGVPVRFSGSGSGTSYSLTISSMEAEDAATYYCQQWSSYPFTFGSGTKLEIK
notes: as for B2
- binding result [2]: binds
- binding result [3]: binds

B4: P13B02-06 (antibody, IgG1, V domains shown)
VH: QVQLVQSGAEVKKPGASVKVSCKASGFNIKDTYIHWVRQAPGQGLEWMGEIDPANDNTKYDPKFQGRVTITADTSTSTVYMELSSLRSEDTAVYYCATYYYRYDVGGFDYWGQGTLVTVSS
VL: EIVLTQSPGTLSLSPGERATLSCSVSSSISSSNLHWYQQKPGQAPRLLIYGTSNLASGIPDRFSGSGSGTDFTLTISRLEPEDFAVYYCQQWSSYPFTFGQGTKVEIK
notes: Humanized; generated as full length IgG1; also called P13B02-06 (IgG1)
- binding result [4]: binds
- binding result [1]: binds

B5: P13B02-27 (antibody, IgG1, V domains shown)
VH: QVQMKQSGAEVVKPGASVKVSCTASGFNIKDTYIHWVRQAPGQGLEWIGEIDPANDNTKYDPKFQGRVTITADTSSNTVYLQLSSLRSEDTAVYYCATYYYRYEVGGFDYWGQGTLVTVSS
VL: EILLTQSPGTLSLSPGERATLTCSVSSSISSSNLHWFQQKPGQSPRLWIYGTSNLASGVPDRFSGSGSGTSYTLTISRLEPEDFAVYYCQQWSSYPFTFGQGTKVEIK
notes: Humanized; VH is H4_D100E; generated as full length IgG1; also called P13B02-27 (IgG1)
- binding result [4]: binds
- binding result [1]: binds

B6: P13B02-16 (antibody, IgG1, V domains shown)
VH: QVQMKQSGAEVKKPGASVKVSCTASGFNIKDTYIHWVRQAPGQGLEWMGEIDPANDNTKYDPKFQGRVTITADTSSNTVYMELSSLRSEDTAVYYCATYYYRYDVGGFDYWGQGTLVTVSS
VL: EIVLTQSPGTLSLSPGERATLSCSVSSSISSSNLHWYQQKPGQAPRLLIYGTSNLASGIPDRFSGSGSGTDFTLTISRLEPEDFAVYYCQQWSSYPFTFGQGTKVEIK
notes: Humanized; generated as full length IgG1; also called P13B02-16 (IgG1)
- binding result [4]: binds
- binding result [1]: binds

B7: P13B02-26 (antibody, IgG1, V domains shown)
VH: QVQMKQSGAEVVKPGASVKVSCTASGFNIKDTYIHWVRQAPGQGLEWIGEIDPANDNTKYDPKFQGRVTITADTSSNTVYLQLSSLRSEDTAVYYCATYYYKYDVGGFDYWGQGTLVTVSS
VL: EILLTQSPGTLSLSPGERATLTCSVSSSISSSNLHWFQQKPGQSPRLWIYGTSNLASGVPDRFSGSGSGTSYTLTISRLEPEDFAVYYCQQWSSYPFTFGQGTKVEIK
notes: Humanized; VH is H4_R98K; generated as full length IgG1; also called P13B02-26 (IgG1)
- binding result [4]: binds
- binding result [1]: binds

B8: P13B02-30 (IgG1 G1m17 N297A) (antibody, V domains shown)
VH: QVQMVQSGAEVKKPGASVKVSCKASGFNIKDTYIHWVRQAPGQGLEWMGEIDPANDNTKYDPKFQGRVTITADTSTSTVYMELSSLRSEDTAVYYCATYYYKYDVGGFDYWGQGTLVTVSS
VL: EIVLTQSPGTLSLSPGERATLSCSVSSSISSSNLHWYQQKPGQAPRLLIYGTSNLASGIPDRFSGSGSGTDFTLTISRLEPEDFAVYYCQQWSSYPFTFGQGTKVEIK
notes: Full length antibody containing IgG1 G1m17 allotype with a N297A mutation (EU)
- binding result [1]: binds

B9: P13B02-07 (antibody, IgG1, V domains shown)
VH: QVQLVQSGAEVKKPGASVKVSCKASGFNIKDTYIHWVRQAPGQGLEWMGEIDPANDNTKYDPKFQGRVTITADTSTSTVYMELSSLRSEDTAVYYCATYYYRYDVGGFDYWGQGTLVTVSS
VL: EIVLTQSPGTLSLSPGERATLSCSVSSSISSSNLHWYQQKPGQAPRLLIYGTSNLASGIPDRFSGSGSGTSYTLTISRLEPEDFAVYYCQQWSSYPFTFGQGTKVEIK
notes: Humanized; generated as full length IgG1; also called P13B02-07 (IgG1)
- binding result [4]: binds
- binding result [1]: binds

B10: P13B02-30 (IgG4) (antibody, V domains shown)
VH: QVQMVQSGAEVKKPGASVKVSCKASGFNIKDTYIHWVRQAPGQGLEWMGEIDPANDNTKYDPKFQGRVTITADTSTSTVYMELSSLRSEDTAVYYCATYYYKYDVGGFDYWGQGTLVTVSS
VL: EIVLTQSPGTLSLSPGERATLSCSVSSSISSSNLHWYQQKPGQAPRLLIYGTSNLASGIPDRFSGSGSGTDFTLTISRLEPEDFAVYYCQQWSSYPFTFGQGTKVEIK
- binding result [1]: binds

B11: P13B02-25 (antibody, IgG1, V domains shown)
VH: QVQMKQSGAEVVKPGASVKVSCTASGFNIKDTYIHWVRQAPGQGLEWIGEIDPANDNTKYDPKFQGRVTITADTSSNTVYLQLSSLRSEDTAVYYCATYYYRYDVGGFDYWGQGTLVTVSS
VL: EILLTQSPGTLSLSPGERATLTCSVSSSISSSNLHWFQQKPGQSPRLWIYGTSNLASGVPDRFSGSGSGTSYTLTISRLEPEDFAVYYCQQWSSYPFTFGQGTKVEIK
notes: Humanized; generated as full length IgG1; also called P13B02-25 (IgG1)
- binding result [4]: binds
- binding result [1]: binds
